Measured values taken from publication PMC3996484, “Apoptosis Therapy in Cancer: The First Single-molecule Co-activating p53 and the Translocator Protein in Glioblastoma” (Scientific Reports, 2014).

Molecular target: T1, recombinant human His-tagged p53 protein (residues 1-312) (human, UniProt P04637 1-312)
T1 construct: p53 tumor suppressor, human, residues 1-312; source: final buffer with 0.2 mM ZnCl2
Assay: NMR titration; AIDA, 1D proton NMR of tryptophan side chain NH-epsilon signals of p53 alone and of the MDM2/p53 complex; 0.1 mM proteins, 20 mM TrisHCl, 150 mM KCl, pH 7.4, 5 mM beta-mercaptoethanol, 0.02% NaN3, 25°C, 700 MHz
Conditions: both partners purified

T1 sequence (P04637 1-312): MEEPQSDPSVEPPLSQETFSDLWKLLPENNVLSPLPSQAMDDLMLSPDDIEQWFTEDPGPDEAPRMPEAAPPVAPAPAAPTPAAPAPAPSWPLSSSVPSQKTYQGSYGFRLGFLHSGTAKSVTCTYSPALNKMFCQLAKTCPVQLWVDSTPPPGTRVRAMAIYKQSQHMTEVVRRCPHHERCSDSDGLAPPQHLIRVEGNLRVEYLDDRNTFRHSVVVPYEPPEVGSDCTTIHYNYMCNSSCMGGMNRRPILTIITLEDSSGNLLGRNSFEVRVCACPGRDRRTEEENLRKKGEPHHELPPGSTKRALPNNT

binding result: binds
B1: recombinant human His-tagged N-terminal region of MDM2 (residues 1-118) (domain or fragment, UniProt Q00987 1-118, looked up)
chain: MCNTNMSVPTDGAVTTSQIPASEQETLVRPKPLLLKLLKSVGAQKDTYTMKEVLFYLGQYIMTKRLYDEKQQHIVYCSNDLLGDLFGVPSFSVKEHRKIYTMIYRNLVVVNQQESSDS
notes: MDM2 (murine double minute 2), human, N-terminal region, residues 1-118; Cloned in a derivative of the vector pET-46Ek/LIC (Novagen); also called murine double minute 2
